Results as given in patent publication US20260327324 (published 2026).
Positions count from the first letter of the chain named. Numbers in names are those of the source. One block for each binder: values may come before it.

Experiments:
CD3e = target: T1, CD3e (UniProt P07766); assay: SPR
T1 chain: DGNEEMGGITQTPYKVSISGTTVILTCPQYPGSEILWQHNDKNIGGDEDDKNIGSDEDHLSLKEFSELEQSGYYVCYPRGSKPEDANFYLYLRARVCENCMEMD

PD-L1 = PD-L1 (UniProt Q9NZQ7); assay: SPR
Sequence of PD-L1 (Q9NZQ7 19-238): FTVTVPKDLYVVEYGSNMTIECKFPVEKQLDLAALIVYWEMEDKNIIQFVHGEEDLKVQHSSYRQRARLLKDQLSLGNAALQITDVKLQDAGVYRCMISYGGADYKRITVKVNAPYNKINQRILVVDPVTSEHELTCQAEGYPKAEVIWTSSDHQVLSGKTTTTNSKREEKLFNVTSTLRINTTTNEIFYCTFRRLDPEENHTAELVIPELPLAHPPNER

Kd (CD3e): 5.2 nM
B1: PRO3718 (28-21-D09-sc04 A67G_S68G) (antibody)
chain: DIQMTQSPSSLSASVGDRVTITCQSSQSVFSNNYLAWFQQKPGQSPKRLIYSGGTLASGVPSRFSGSGSGTDFTLTISSLQPEDFATYYCLGSYACSSADCYVFGTGTKVTVLGGGGGSGGGGSGGGGSGGGGSEVQLVESGGGLVQPGGSLRLSCAASGFSLSSYDMSWVRQAPGKGLAWIGASYASGPTYYASWAKGRFTISRDNSKNTVYLQMNSLRAEDTATYFCARGGWTGTSHSNIWGQGTLVTVSS

Kd (CD3e): 5.88 nM
B2: PRO2781 (28-21-D09-sc04) (antibody)
chain: B1 chain with G53A, G54S

binding result (PD-L1): no binding
B3: PRO3478 (37-20-B03-sc09.1 Y42S human consensus LCDR2) (antibody)
chain: DIQMTQSPASLSASVGDRVTITCQASQSIGTYLAWYQQKPGKPPKLLIYAASSLQSGVPSRFSGSGSGTDFTLTISSLQPEDFATYYCQSNFYSDSTTIGPNAFGTGTKVTVLGGGGGSGGGGSGGGGSGGGGSEVQLVESGGGLVQPGGSLRLSCAASGFSFNSDYWISWVRQAPGKGLEWIASIYGGSSGNTQYASWAQGRFTISRDNSKNTVYLQMNSLRAEDTAVYFCARGYVDYGGATDLWGQGTLVTVSS
